The nanobody polyreactivity screen of Harvey et al. (2022)

Assay: yeast display, Sf9 membrane polyspecificity reagent, FACS + sequencing; frameworks hold sequencing errors
In short: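 Sorting gates, low and high (top ~1%), were placed on anti-HA fluorescence to track expression and on streptavidin fluorescence to track reagent binding. A clone's polyreactivity label is taken from the gate it came out of. The reagent was 10% biotinylated, detergent-solubilized Sf9 membrane, applied for 1 hour at 4 °C to galactose-induced yeast display cells.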

Sequence	polyreactivity (PSR sort gate)
QVQLVESGGGLVQAGGSLRLSCAASGSTFVRYAMGWYRQAPGKERELVAAITGTGSSTYYADSVKGRFTISRDNAKNTVYLQMNSLKPEDTAVYYCAKRWRTVFGYDYWGQGTQVTVSS	high polyreactivity
QVQLVESGGGLVQAGGSLRLSCAASGSTFVRYAMGWYRQAPGKERELVAGISSGDRTYYADSVKGRFTISRDNAKNTVYLQMNSLKPEDTAVYYCNARPVYLLEGYYWGQGTQVTVSS	low polyreactivity
QVQLVESGGGLVQAGGSLRLSCAASGSTFVRYAMGWYRQEPGKERELVAAISKSGGSTYYADSVKGRFTISRDNAKNTVYLQMNSLKPEDTAVYYCNADVYKNSKFRIMGYWGQGTQVTVSS	low polyreactivity
QVQLVESGGGLVQAGGSLRLSCAASGSTFVRYVMGWYRQAPGKERELVAAISRRGGSTYYADSVKGRFTISRDNAKNTVYLQMHSLKPEDSAVYYCARTVGYSTLLESVSWGQGTQLTVSS	high polyreactivity
QVQLVESGGGLVQAGGSLRLSCAASGSTFVSNAMGWYRPAPGKERELVAAISTSGGSTYYADSVKGRFTISRDNAKNTVYLLMNSLKPEDTAVYYCAKLLARGFRIWQDYDYWGQGTQVTVSS	low polyreactivity
QVQLVESGGGLVQAGGSLRLSCAASGSTFVSNAMGWYRQAPGKERELVAGISWSGGSTYYADSVKGRFTISRDNAKNTVYLQMHSLKPEDTAVYYCNAVYRPRQFDYWGQGTQVTVSS	low polyreactivity
QVQLVESGGGLVQAGGSLRLSCAASGSTFVSNAMGWYRQAPGKERELVASISQSGGGTDYADSVKGRFTISRDNAKNTVYLQMNSLKPEDTAVYYCAADRVPVQAPYDYWGQGTQVTVSS	high polyreactivity
QVQLVESGGGLVQAGGSLRLSCAASGSTFVSNGMGWYRQAPGKERELVAAITRGGSTKYADSVKGRFTISRDNAKNTVYLQMNSLKPEDTAVYYCAKRLYTRPGWYDYWGQGTQVTVSS	high polyreactivity
QVQLVESGGGLVQAGGSLRLSCAASGSTFVSYAMGWYRQAPGKERELVAAISISDSSTYYADSVKGRFSISRDNAKNTVYLQMNSLKPEDTAVYYCNRYDFWGQGTQVTVSS	low polyreactivity
QVQLVESGGGLVQAGGSLRLSCAASGSTFVSYAMGWYRQAPGKERELVAASSRSGGSTYYADSVKGRFTISRDNAKNTVYLQMNILIPEDTAVYYCAADGRGPSKRNRDYWGQGTQVTVSS	high polyreactivity
QVQLVESGGGLVQAGGSLRLSCAASGSTFVSYAMGWYRQAPGKERELVAGITRRGGTTYYADSVKGRFTISRDNAKNTVYLQMNSLKPEDTAVYYCARYSLYTGYRRYPLDYDYWGQGTQVTVSS	high polyreactivity
QVQLVESGGGLVQAGGSLRLSCAASGSTFVSYDMGWYRQAPGKERELVADISWSGVSTYADSVKGRFTISRDNAKNTVYLQMNSLKPEDTAVYYCATDDARRGYGYGYWGQGTQVTVSS	low polyreactivity
QVQLVESGGGLVQAGGSLRLSCAASGSTFVTNAMGWYRQAPGTEREFVAAISWISTSTYYADSVKGRFTISRDNAKNTVYLQMNSLKPEDTAVYYCNATTFAFSPSLKGAYGYWGQGTQVTVSS	low polyreactivity
QVQLVESGGGLVQAGGSLRLSCAASGSTFVTYAMGCYRQAPGKERELVAVITYSGGNTYYADSVKGRVTISRDNAKNTVYLQMNSLKPEDTAVYDCAAAWLTSRGSRDSHRKYYYWGQGTQVTVSS	high polyreactivity
QVQLVESGGGLVQAGGSLRLSCAASGSTFVTYAMGWYRQAPGKERELVAAIDSGGNTNYADSVKGRFTISRDNAKNTVYLQMNSLKPEDTAVYYCAVRPYELHRLDDQPGGDDYWGQGTQVTVSS	low polyreactivity
QVQLVESGGGLVQAGGSLRLSCAASGSTFVTYGMGWYRQAPGKERELVAAITRDSSTNDADSVKGRFTISRDNAKNTVYLQLNSLKPEDTAVYYCATPRLPNFIGTEYDYWGQGTQVTVSS	low polyreactivity
QVQLVESGGGLVQAGGSLRLSCAASGSTFVVNAMGWYRQAPGKERELVAAIDDGAGDTYYADSVKGRFTISRDNAENTVYLQMNSLKPEDTAVYYCAADTWYQMDYWGQGTQVTVSS	low polyreactivity
QVQLVESGGGLVQAGGSLRLSCAASGSTFVVNVMGWYRQAPGKERELVAAITYRSGSTYYADSVKGSFTISRDNAKNTVYLQMNSLKPEDTAVYYCAAGYYSRYYVAFEYYYWGQGTQVTVSS	high polyreactivity
QVQLVESGGGLVQAGGSLRLSCAASGSTFVVYAMGWYRQAPGKERELVAAIDLSVGDTYYADSVKGRFTISRDNAKNTVYLQMNSLKPEDTAVYYCNVAVYYWRWIYGYWGQGTQVTVSS	low polyreactivity
QVQLVESGGGLVQAGGSLRLSCAASGSTFVWYAMGWYRQAPGKERELVAVINWSAGRTYYADSVKGRFTFSRDTAKNTVYLQMNSLKPEDTAVYYCATRTYYRSRTVGWGKMDYWGQGTQVTVSS	high polyreactivity
QVQLVESGGGLVQAGGSLRLSCAASGSTFVWYDMGWYRQAPGKERELVATITSGGITTYADSVKGRFTISRDNAKNTVYLQMNSPKPEDTAVYYCNADLYYWLRYYDRNEYRGQGTQVTVSS	low polyreactivity
QVQLVESGGGLVQAGGSLRLSCAASGSTFVYNAMGRYRQAPVKERELVAAISSGGSTYYADSVKGRFTISRDNAKNTVYLQMNSLKPEATAVYYCNARGSWRRDKYGTYYRYDYWGQGTQVTVSS	high polyreactivity

Sequence	polyreactivity (PSR sort gate)
QVQLVESGGGLVQAGGSLRLSCAASGSTFVYNAMGWYRQAPGKERELVAAISRGGGITYYADSVKGRFTISRDNAKNTVYLQMNSLKPEDTAVYYCQYLSRGLNTYRSSQGDDDYWGQGTQVTVSS	high polyreactivity
QVQLVESGGGLVQAGGSLRLSCAASGSTFVYNAMGWYRQAPGKERELVASITRSGSSTYYADSVKGRFTISRDNAKNTVYLQMNSLKPEDTAVYYCAVRYSVLSNYRYYYWGQGTQVTVSS	low polyreactivity
QVQLVESGGGLVQAGGSLRLSCAASGSTFVYNARGWYRQAPGKERELVAAISRRGGSTYYADSVKGRFTISRDNAKNTVYLQMNSLKPEDTAVYYCAADQYRTNSYRYDYWGQGTQVTVSS	low polyreactivity
QVQLVESGGGLVQAGGSLRLSCAASGSTFVYNTMGWYRQAPGKERELVAAISKSGTNTLYADSVKGRFTISRDNAKNTVYLQMNSLKPEDTAVYYCAVRSVPRWFTELDYWGQGTQVTVSS	low polyreactivity
QVQLVESGGGLVQAGGSLRLSCAASGSTFVYYAMGGYRQAPGKERELDAAITSSGVRTYYADSVKGRFTISRDNAKNTVYLQMNSLKPEVTAVYYCAKRSTRLYSFTYQGYGYWGQGTQVTVSS	high polyreactivity
QVQLVESGGGLVQAGGSLRLSCAASGSTFVYYAMGWYRQAPGKEREFVAAISISTGSTYYADSVKGRFTISRDNAKNTVYLQMNSLKPEDTAVYYCAVDWFLGGYDDLDYWGQGTQVTVSS	low polyreactivity
QVQLVESGGGLVQAGGSLRLSCAASGSTFVYYAMGWYRQAPGKEREFVAAISTNGGSTYYADSVKGRFTISRDNAKNTVYLQMNSLKPEDTAVYYCAARWYWGQGTQVTVSS	high polyreactivity
QVQLVESGGGLVQAGGSLRLSCAASGSTFVYYDMGGYRPAPGKERELVADISDSGGSTNYADSVKGRFTISRDNAKNTVYLHMNSLKPEDTAVYYCAADSADPTEYDYWGQGTQVTVSS	low polyreactivity
QVQLVESGGGLVQAGGSLRLSCAASGSTFWAYAMGWSRQAPGKERELVAAITSGGSTYADSVKGRFTISRDNAKNTVYLQMNSLKPEDTAVYYCAADVYYSGWWFDYWGQGTQVTVSS	high polyreactivity
QVQLVESGGGLVQAGGSLRLSCAASGSTFWAYVMGWYRQAPGKESELVAAISKSGVRTHYADSVKGRFTISRDNAKNTVYLQMNSLKPEDTAVYYCAAEWSWGPYRFDYWGQGTQVTVSS	high polyreactivity
QVQLVESGGGLVQAGGSLRLSCAASGSTFWDYTMGWYRQAPGKERELVAAINYSDGSTYYADSVKGRFTISRDNAKNTVYLQMNSLKPEDTAVYYCAAGSDPTGRRYDYWGQGTQVTVSS	low polyreactivity
QVQLVESGGGLVQAGGSLRLSCAASGSTFWEYVMGWYRQAPGKERELVAAISDSGGSTYYADSVKGRFTISRDNAKNTVYLQMNSLKPEDTAVYYCNADWSWYNYYDFDYWGQGTQVTVSS	low polyreactivity
QVQLVESGGGLVQAGGSLRLSCAASGSTFWFYAMGWYRQAPGKERELVAANSRSSGSTYYADSVKGRFTISRDNAKNTVYLQMNSLKPEDTAVFSCAAVEPDRDYGYWGQGTQVTVSS	low polyreactivity
QVQLVESGGGLVQAGGSLRLSCAASGSTFWFYAMGWYRQAPGKERELVATITIGGRTYADSVKGRFTISRDNAKNTVYLQMNTLKPEDTAVYYCAARRGRLEYVNGRYDYWGQGTQVTVSS	low polyreactivity
QVQLVESGGGLVQAGGSLRLSCAASGSTFWGYGMGWYRQAPGKERELVATINQSAGSTYYADSVKGRFTISRDNAKNTVYLQLNSLNPEDPAAYYCATDLIQGAAPFRYDYWGQGTQVTVSS	low polyreactivity
QVQLVESGGGLVQAGGSLRLSCAASGSTFWGYTMGWYRQAPGKERELVAAITGSGGSTNYADSVKGRFTISRDNANNTVYLQMNSLKPEDTAVYYCATQGITPSNSYDYWGQGTQVTVSS	low polyreactivity
QVQLVESGGGLVQAGGSLRLSCAASGSTFWHNAMGWYRTAHGKERELVAGISSIGGRTYYADSVKGRFTISRDNAKNTVYLQMNSLKQEDTAVYYCAARYRRTIPWFAPGTDHNYWGQGTQVTVSS	high polyreactivity
QVQLVESGGGLVQAGGSLRLSCAASGSTFWHYAMGWYRQAPGKERELVAAISSGGGRTYYADSVKGRFTISRDNAKNTVYLQMNSLKPEDTAVYYCAARYYFYDYWGQGTQVTVSS	high polyreactivity
QVQLVESGGGLVQAGGSLRLSCAASGSTFWINTMGWYRQAPGKERELVAAITRSGGNTYYADSVKGRFTISRDNAKNTVYLQMNSLKPEDTAVYYCAAAYTRKYVTHGYWGQGTQVTVSS	high polyreactivity
QVQLVESGGGLVQAGGSLRLSCAASGSTFWIYAMGWYRQPPGKERELVAAISWSTGRTYYADSVKGRFTISRDNAKNTVYLQMNSLKPEDTAVYYCNAGPQHNTLKLFYYWGQGTQVTVSS	low polyreactivity
QVQLVESGGGLVQAGGSLRLSCAASGSTFWLNAMGWYRQAPGKEREYVAAITWSSGSTYYADSVKGRFTISRDNAKNTVYLQMNSLKPEDTAVYYCAADGRYVRIRGDYWGQGTQVTVSS	low polyreactivity
